Molecular target: the molecule itself
Assay: SEC + other: sucrose gradient centrifugation

B1: rat dynamin 1 lacking the proline-rich domain (Dyn1 ΔPRD) (domain or fragment)
chain: MGNRGMEDLIPLVNRLQDAFSAIGQNADLDLPQIAVVGGQSAGKSSVLENFVGRDFLPRGSGIVTRRPLVLQLVNSTTEYAEFLHCKGKKFTDFEEVRLEIEAETDRVTGTNKGISPVPINLRVYSPHVLNLTLVDLPGMTKVPVGDQPPDIEFQIRDMLMQFVTKENCLILAVSPANSDLANSDALKIAKEVDPQGQRTIGVITKLDLMDEGTDARDVLENKLLPLRRGYIGVVNRSQKDIDGKKDITAALAAERKFFLSHPSYRHLADRMGTPYLQKVLNQQLTNHIRDTLPGLRNKLQSQLLSIEKEVDEYKNFRPDDPARKTKALLQMVQQFAVDFEKRIEGSGDQIDTYELSGGARINRIFHERFPFELVKMEFDEKELRREISYAIKNIHGIRTGLFTPDLAFEATVKKQVQKLKEPSIKCVDMVVSELTSTIRKCSEKLQQYPRLREEMERIVTTHIREREGRTKEQVMLLIDIELAYMNTNHEDFIGFANAQQRSNQMNKKKTSGNQDEILVIRKGWLTINNIGIMKGGSKEYWFVLTAENLSWYKDDEEKEKKYMLSVDNLKLRDVEKGFMSSKHIFALFNTEQRNVYKDYRQLELACETQEEVDSWKASFLRAGVYPERVGDKEKASETEENGSDSFMHSMDPQLERQVETIRNLVDSYMAIVNKTVRDLMPKTIMHLMINNTKEFIFSELLANLYSCGDQNTLMEESAEQAQRRDEMLRMYHALKEALSIIGDINTTTVST
stoichiometry N: 2

Source: paper PMC4075756 (Nature, 2011)
